“And” between values parts separate entries of the source, which are not always exact repeats. Identical values can stand only once.

The conditions of the data set: Equus caballus, pH 6, 25 °C, transition: 2.
The mark [1] stands for this setting: GdnHCl, CD, sodium cacodylate, NaCl, reversible: yes, structure 1HRC.
Setting [2] is: GdnHCl, sodium cacodylate 100 mM, NaCl 100 mM, reversible: no, structure 1HRC.
Setting [3] is: Urea, CD, sodium cacodylate, NaCl, reversible: yes, structure 1HRC.
[4] abbreviates: Urea, sodium cacodylate 100 mM, NaCl 100 mM, reversible: no, structure 1HRC.
[5] abbreviates: GdnHCl, CD, sodium cacodylate, NaCl, reversible: yes.

Sequence of Cytochrome c wild type, P00004 (P00004 whole entry): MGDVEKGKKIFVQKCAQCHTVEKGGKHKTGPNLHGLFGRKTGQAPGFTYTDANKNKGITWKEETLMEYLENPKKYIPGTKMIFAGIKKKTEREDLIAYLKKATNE
Sequence of Cytochrome c L95I, P00004 (P00004 whole entry L95I): as the sequence (P00004 whole entry) above, with L95I counted along it
Sequence of Cytochrome c L95V, P00004 (P00004 whole entry L95V): as the sequence (P00004 whole entry) above, with L95V counted along it

In the case of Cytochrome c L95I, P00004, the “ddG of mutation (higher = less stable)” value under setting [1] was 1.31 kcal/mol and 1.51 kcal/mol; the “ddG of mutation (higher = less stable)” value under setting [2] was 1.54 kcal/mol and 1.1 kcal/mol and 1.51 kcal/mol; the “ddG of mutation (higher = less stable)” value under setting [3] is 1.73 kcal/mol and 1.68 kcal/mol; the “ddG of mutation (higher = less stable)” value under setting [4] is 1.68 kcal/mol and 1.83 kcal/mol. The denaturant m value is, setting by setting: under setting [1], 3.59 kcal/mol/M and 3.64 kcal/mol/M; under setting [2], 3.65 kcal/mol/M and 3.49 kcal/mol/M and 3.64 kcal/mol/M; under setting [3], 1.48 kcal/mol/M and 1.47 kcal/mol/M; under setting [4], 1.49 kcal/mol/M and 1.47 kcal/mol/M. The “denaturant midpoint (higher = more stable)” value (“denaturant midpoint” for short) reads like this: under setting [1], 2.14 M and 2.15 M; under setting [2], 2.18 M and 2.06 M and 2.15 M; under setting [3], 5.87 M and 5.89 M; under setting [4], 5.9 M and 5.89 M. For the same substance, the unfolding free energy by setting is: under setting [1], 7.69 kcal/mol and 7.95 kcal/mol; under setting [2], 7.96 kcal/mol and 7.17 kcal/mol and 7.95 kcal/mol; under setting [3], 8.68 kcal/mol and 8.7 kcal/mol; under setting [4], 8.78 kcal/mol and 8.65 kcal/mol and 8.7 kcal/mol.
With Cytochrome c L95V, P00004, the “ddG of mutation (higher = less stable)” value is 1.66 kcal/mol and 1.82 kcal/mol under setting [1]; 2.36 kcal/mol under setting [3]. Moreover, the denaturant m value was 3.54 kcal/mol/M and 3.61 kcal/mol/M under setting [1]; 1.47 kcal/mol/M under setting [3]; 1.48 kcal/mol/M and 1.47 kcal/mol/M under setting [4]. Further, the “denaturant midpoint” value is 2.07 M and 2.11 M under setting [1]; 2.1 M and 2.01 M and 2.11 M under setting [2]; 5.46 M under setting [3]; 5.46 M and 5.43 M under setting [4]. Besides, the unfolding free energy is, setting by setting: under setting [1], 7.34 kcal/mol and 7.64 kcal/mol; under setting [3], 8.02 kcal/mol.
On to Cytochrome c wild type, P00004, for which, under setting [5], the denaturant m value was 3.64 kcal/mol/M and 3.73 kcal/mol/M; the “denaturant midpoint” value is 2.47 M and 2.53 M; the unfolding free energy was 9 kcal/mol and 9.46 kcal/mol. Besides, the unfolding free energy (Urea, sodium cacodylate 100 mM, NaCl 100 mM, reversible: yes) was 10.5 kcal/mol and 10.3 kcal/mol and 10.4 kcal/mol.

These data come from FireProtDB (doi:10.1016/j.ijbiomac.2020.05.059).
